Measured values: patent US20240018206A1

Biological target: IL-1 receptor (IL-1R1) on A375.s2 cells (UniProt P14778)
Assay: cell-based or functional assay

UniProt P14778, sequence (P14778 18-569 limits assumed): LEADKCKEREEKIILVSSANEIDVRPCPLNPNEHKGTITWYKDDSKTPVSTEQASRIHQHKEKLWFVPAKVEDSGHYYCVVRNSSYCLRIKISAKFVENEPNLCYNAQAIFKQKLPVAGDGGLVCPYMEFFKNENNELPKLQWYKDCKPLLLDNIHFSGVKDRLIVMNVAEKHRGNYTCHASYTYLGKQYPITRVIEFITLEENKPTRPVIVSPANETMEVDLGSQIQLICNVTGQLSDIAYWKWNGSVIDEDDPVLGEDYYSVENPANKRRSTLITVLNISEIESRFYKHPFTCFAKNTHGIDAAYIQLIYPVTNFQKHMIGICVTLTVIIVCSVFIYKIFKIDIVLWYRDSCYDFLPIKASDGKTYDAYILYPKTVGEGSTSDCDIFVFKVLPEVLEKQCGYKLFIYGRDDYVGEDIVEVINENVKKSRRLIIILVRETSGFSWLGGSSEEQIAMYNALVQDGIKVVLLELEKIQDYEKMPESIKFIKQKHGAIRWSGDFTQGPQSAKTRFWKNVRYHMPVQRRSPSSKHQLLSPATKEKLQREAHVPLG

IC50(µg/ml), inhibition of IL-1β induced A375.s2 apoptosis (MTS, 490 nM) [µg/mL] | biological activity relative to the wild type [fold] | IL1RN activity IC50 [µg/mL] | Substance
4.85 | 3 |  | IL-1RN D74N-Fc without linker (from UniProt P18510 26-177) (Fc fusion)
 |  | 0.333 | IL-1RN-Fc, single-target comparator of Table 4 (from UniProt P18510 26-177) (Fc fusion)
 |  | 0.714 | IL-1RN-TNFR2-Fc dual-target fusion protein (IL-1RN D74N, TNFR2, hIgG4 Fc S228P) (Fc fusion)
12.1 |  |  | Wild-type IL-1RN-Fc of Table 2 (from UniProt P18510 26-177) (Fc fusion)
